Source: US10538585 (dated 2020)
Positions count from the first letter of the chain named. Where two headings read alike, the source gives them in different places. Values belong to the binder of their own block, whether it stands above or below them.

Assays:
human ANG2-RBD-Fc [1] = target: T1, human ANG2-RBD-Fc (human, UniProt O15123); experiment: SPR
T1 chain: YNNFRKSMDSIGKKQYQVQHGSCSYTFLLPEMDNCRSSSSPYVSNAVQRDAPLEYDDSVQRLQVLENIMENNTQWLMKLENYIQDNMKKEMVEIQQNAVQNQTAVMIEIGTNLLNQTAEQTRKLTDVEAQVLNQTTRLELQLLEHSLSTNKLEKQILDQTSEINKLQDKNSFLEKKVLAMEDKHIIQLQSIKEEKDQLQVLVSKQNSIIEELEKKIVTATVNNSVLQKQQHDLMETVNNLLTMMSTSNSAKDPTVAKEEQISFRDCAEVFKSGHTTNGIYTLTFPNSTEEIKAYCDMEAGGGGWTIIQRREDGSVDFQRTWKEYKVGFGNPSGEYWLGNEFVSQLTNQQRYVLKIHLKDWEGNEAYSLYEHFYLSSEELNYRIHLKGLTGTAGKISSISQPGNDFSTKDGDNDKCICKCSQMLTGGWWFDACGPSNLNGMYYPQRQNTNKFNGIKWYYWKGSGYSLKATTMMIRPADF

human ANG2 [2] = target: T2, human ANG2 (human, UniProt O15123); experiment: competition, Tie2 binding inhibition (pTie2 ELISA)
T2 chain: T1 chain

human ANG2-RBD-Fc [3] = target: T1, human ANG2-RBD-Fc; experiment: SPR
human ANG2-RBD-Fc [4] = target: T1, human ANG2-RBD-Fc; experiment: SPR bivalent
human ANG2 [5] = target: T2, human ANG2; experiment: competition, Tie2 binding inhibition (pTie2 ELISA)
human ANG2-RBD-Fc [6] = target: T1, human ANG2-RBD-Fc; experiment: SPR bivalent
human ANG2-RBD-Fc [7] = target: T1, human ANG2-RBD-Fc; experiment: SPR
human ANG2-RBD-Fc [8] = target: T1, human ANG2-RBD-Fc; experiment: SPR
human ANG2-RBD-Fc [9] = target: T1, human ANG2-RBD-Fc; experiment: SPR
human ANG2-RBD-Fc [10] = target: T1, human ANG2-RBD-Fc; experiment: SPR
human ANG2-RBD-Fc [11] = target: T1, human ANG2-RBD-Fc; experiment: SPR
human ANG2 [12] = target: T2, human ANG2; experiment: competition, Tie2 binding inhibition (pTie2 ELISA)

Kd (human ANG2-RBD-Fc [1]): 1 nM
EC50 (human ANG2 [2]): 7 nM
Kd (human ANG2-RBD-Fc [3]): 1 nM
B1: 0090 (antibody)
chain 1: not shown
chain 2: SYVLTQPPSVSVAPGQTARITCGGNNIGSKSVHWYQQKPGQAPVLVVYDTSDRPSGIPERFSGSNSGNTATLTISRVEAGDEADYYCQVWDSSSDHWVFGGGTKLTVLSSASTKGPSVFPLAPSSKSTSGGTAALGCLVKDYFPEPVTVSWNSGALTSGVHTFPAVLQSSGLYSLSSVVTVPSSSLGTQTYICNVNHKPSNTKVDKKVEPKSC

Kd (human ANG2-RBD-Fc [4]): 0.008 nM
EC50 (human ANG2 [5]): 3.2 nM
Kd (human ANG2-RBD-Fc [6]): 0.008 nM
B2: 0100 (antibody)
chain 1: not shown
chain 2: B1 chain 2

Kd (human ANG2-RBD-Fc [7]): 4 nM
B3: 0165 ANG2 arm (antibody)
chain 1: not shown
chain 2: B1 chain 2

Kd (human ANG2-RBD-Fc [8]): 3 nM
B4: 0033 (antibody, V domains shown)
VH: not shown
VL: SYVLTQPPSVSVAPGQTARITCGGNNIGSKSVHWYQQKPGQAPVLVVYDDSDRPSGIPERFSGSNSGNTATLTISRVEAGDEADYYCQVWDSSSDHWVFGGGTKLTVLS

Kd (human ANG2-RBD-Fc [1]): 14 nM
EC50 (human ANG2 [2]): 39 nM
Kd (human ANG2-RBD-Fc [3]): 14 nM
B5: 0075 (antibody, V domains shown)
VH: not shown
VL: B4 VL with D50T

Kd (human ANG2-RBD-Fc [7]): 49 nM
B6: 0166 ANG2 arm (antibody, V domains shown)
VH: not shown
VL: B4 VL with D50T

Kd (human ANG2-RBD-Fc [9]): 29 nM
B7: 0057 (antibody, V domains shown)
VH: not shown
VL: B4 VL

Kd (human ANG2-RBD-Fc [10]): 12 nM
B8: 0017 (antibody, V domains shown)
VH: not shown
VL: B4 VL

Kd (human ANG2-RBD-Fc [7]): 4 nM
B9: 0163 ANG2 arm (antibody, V domains shown)
VH: not shown
VL: B4 VL with S1Q, Y2P, V3G, D50T, W97Y, G101T, L105V

Kd (human ANG2-RBD-Fc [8]): 69 nM
B10: 0027 (antibody, V domains shown)
VH: not shown
VL: B4 VL

Kd (human ANG2-RBD-Fc [9]): 4 nM
B11: 0042 (antibody, V domains shown)
VH: not shown
VL: B4 VL

Kd (human ANG2-RBD-Fc [11]): 5 nM
B12: 0156 (antibody, V domains shown)
VH: not shown
VL: B4 VL with S1Q, Y2P, V3G, D50T, W97Y, G101T, L105V

Kd (human ANG2-RBD-Fc [8]): 143 nM
B13: 0028 (antibody, V domains shown)
VH: not shown
VL: B4 VL

Kd (human ANG2-RBD-Fc [9]): 23 nM
B14: 0040 (antibody, V domains shown)
VH: not shown
VL: B4 VL

Kd (human ANG2-RBD-Fc [9]): 21 nM
B15: 0060 (antibody, V domains shown)
VH: not shown
VL: B4 VL with D50T

Kd (human ANG2-RBD-Fc [4]): 0.007 nM
EC50 (human ANG2 [5]): 3 nM
Kd (human ANG2-RBD-Fc [6]): 0.007 nM
B16: 0101 (antibody, V domains shown)
VH: not shown
VL: B4 VL with D50T

Kd (human ANG2-RBD-Fc [1]): 1 nM
Kd (human ANG2-RBD-Fc [9]): 1 nM
EC50 (human ANG2 [12]): 5.4 nM
B17: 0041 (antibody, V domains shown)
VH: not shown
VL: B4 VL

Kd (human ANG2-RBD-Fc [9]): 18 nM
B18: 0061 (antibody, V domains shown)
VH: not shown
VL: B4 VL with D50T

Kd (human ANG2-RBD-Fc [4]): 0.004 nM
EC50 (human ANG2 [5]): 3.2 nM
Kd (human ANG2-RBD-Fc [6]): 0.004 nM
B19: 0099 (antibody, V domains shown)
VH: not shown
VL: B4 VL

Kd (human ANG2-RBD-Fc [9]): 21 nM
B20: 0058 (antibody, V domains shown)
VH: not shown
VL: B4 VL

Kd (human ANG2-RBD-Fc [11]): 43 nM
B21: 0155 (antibody, V domains shown)
VH: not shown
VL: B4 VL with S1Q, Y2P, V3G, D50T, W97Y, G101T, L105V

Kd (human ANG2-RBD-Fc [7]): 39 nM
B22: 0164 ANG2 arm (antibody, V domains shown)
VH: not shown
VL: B4 VL with S1Q, Y2P, V3G, D50T, W97Y, G101T, L105V

Kd (human ANG2-RBD-Fc [10]): 18 nM
B23: 0026 (antibody, V domains shown)
VH: not shown
VL: B4 VL

Kd (human ANG2-RBD-Fc [10]): 38 nM
B24: 0025 (antibody, V domains shown)
VH: not shown
VL: B4 VL

Kd (human ANG2-RBD-Fc [3]): 16 nM
B25: 0074 (antibody, V domains shown)
VH: not shown
VL: B4 VL
